For the test, the target named is T1, α1-proteinase inhibitor (human, UniProt P01009 25-418).
T1 construct: also called α1-PI; α1PI
Kind of test: ELISA of HNE-α1-PI complexes in human plasma.

T1 sequence (P01009 25-418 limits assumed): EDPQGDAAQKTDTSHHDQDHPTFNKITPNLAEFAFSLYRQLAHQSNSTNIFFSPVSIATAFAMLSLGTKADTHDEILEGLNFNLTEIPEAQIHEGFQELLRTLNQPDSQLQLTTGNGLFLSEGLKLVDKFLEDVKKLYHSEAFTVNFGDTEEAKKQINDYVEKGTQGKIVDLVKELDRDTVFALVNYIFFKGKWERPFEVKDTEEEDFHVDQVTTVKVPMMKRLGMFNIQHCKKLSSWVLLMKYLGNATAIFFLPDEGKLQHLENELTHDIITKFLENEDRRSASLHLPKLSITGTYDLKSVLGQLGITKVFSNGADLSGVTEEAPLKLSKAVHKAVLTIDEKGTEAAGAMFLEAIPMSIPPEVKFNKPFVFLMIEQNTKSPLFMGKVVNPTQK

B1: Human neutrophil elastase (enzyme, UniProt P08246 30-247, looked up)
chain: IVGGRRARPHAWPFMVSLQLRGGHFCGATLIAPNFVMSAAHCVANVNVRAVRVVLGAHNLSRREPTRQVFAVQRIFENGYDPVNLLNDIVILQLNGSATINANVQVAQLPAQGRRLGNGVQCLAMGWGLLGRNRGIASVLQELNVTVVTSLCRRSNVCTLVRGRQAGVCFGDSGSPLVCNGLIHGIASFVRGGCASGLYPDAFAPVAQFVNWIDSIIQ
notes: Tested free (purified, in supernatants or in plasma) and as an HNE-DNA complex on NETs; also called HNE; leukocyte elastase
On to B1, for which the binding result is recorded as “binds”.
